Positions count from the first letter of the chain named. Numbers in names are those of the source.
T1: human SEMA4A expressed on cells (UniProt ID Q9H3S1, isoform 1) (human, UniProt Q9H3S1 33-761)
T1 sequence: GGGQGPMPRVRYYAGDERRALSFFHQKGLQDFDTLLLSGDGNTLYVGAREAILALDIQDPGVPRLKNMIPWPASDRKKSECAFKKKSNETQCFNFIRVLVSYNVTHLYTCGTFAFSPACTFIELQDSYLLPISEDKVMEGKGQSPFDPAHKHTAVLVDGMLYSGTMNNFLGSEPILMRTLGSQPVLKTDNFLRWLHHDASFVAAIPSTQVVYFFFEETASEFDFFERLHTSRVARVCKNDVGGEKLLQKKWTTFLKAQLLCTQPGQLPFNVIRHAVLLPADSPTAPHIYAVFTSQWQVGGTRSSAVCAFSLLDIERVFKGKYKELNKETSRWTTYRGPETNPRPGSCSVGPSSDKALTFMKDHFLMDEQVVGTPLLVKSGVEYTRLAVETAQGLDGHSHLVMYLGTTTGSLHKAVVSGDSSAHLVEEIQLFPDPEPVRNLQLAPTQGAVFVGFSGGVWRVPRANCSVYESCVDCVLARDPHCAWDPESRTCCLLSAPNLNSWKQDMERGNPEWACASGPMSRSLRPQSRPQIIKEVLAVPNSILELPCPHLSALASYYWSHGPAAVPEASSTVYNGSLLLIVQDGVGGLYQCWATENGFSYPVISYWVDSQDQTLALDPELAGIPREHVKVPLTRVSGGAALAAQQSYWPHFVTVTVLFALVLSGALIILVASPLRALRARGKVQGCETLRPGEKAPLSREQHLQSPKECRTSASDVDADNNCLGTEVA

T2: mouse SEMA4A expressed on expi293 cells (UniProt ID Q62178) (mouse, UniProt Q62178 33-760)
T2 construct: Transient transfection in expi293 cells
T2 sequence: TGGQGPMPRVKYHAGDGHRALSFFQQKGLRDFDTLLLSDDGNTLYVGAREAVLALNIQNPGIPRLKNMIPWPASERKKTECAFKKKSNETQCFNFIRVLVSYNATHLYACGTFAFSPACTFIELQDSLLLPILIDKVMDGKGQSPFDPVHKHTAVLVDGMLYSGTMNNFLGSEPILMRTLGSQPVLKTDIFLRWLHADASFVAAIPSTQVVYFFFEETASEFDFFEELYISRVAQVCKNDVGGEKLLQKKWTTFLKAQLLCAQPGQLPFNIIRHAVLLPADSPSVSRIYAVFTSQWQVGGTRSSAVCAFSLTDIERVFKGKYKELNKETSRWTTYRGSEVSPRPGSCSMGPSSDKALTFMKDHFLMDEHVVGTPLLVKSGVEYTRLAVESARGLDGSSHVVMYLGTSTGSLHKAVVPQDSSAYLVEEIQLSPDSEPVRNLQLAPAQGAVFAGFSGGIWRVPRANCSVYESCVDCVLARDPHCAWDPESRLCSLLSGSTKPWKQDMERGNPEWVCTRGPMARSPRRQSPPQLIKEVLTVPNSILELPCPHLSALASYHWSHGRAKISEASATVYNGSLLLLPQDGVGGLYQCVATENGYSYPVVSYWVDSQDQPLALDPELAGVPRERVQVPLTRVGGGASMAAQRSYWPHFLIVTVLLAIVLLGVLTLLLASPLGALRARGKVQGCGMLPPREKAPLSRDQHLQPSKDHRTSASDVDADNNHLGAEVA

B1: 5Hg5-5Lg2 human Alya IgG1 (antibody, V domains shown)
VH: EVQLVQSGAEVKKPGESLRISCKGSGYSFTDYWMHWVRQMPGKGLEWMGAIDTSDSYTSYNQKFKGQVTISADKSISTAYLQWSSLKASDTAMYYCARDYGNFYYYAMDYWGQGTLVTVSS
VL: QAVVTQEPSLTVSPGGTVTLTCRSSTGAVTTSNYANWFQQKPGQAPRTLIYGTNNRAPWTPARFSGSLLGGKAALTLLGAQPEDEAEYYCALWYSNHWVFGGGTKLTVL
notes: Humanised 5E3; human IgG1 Alya constant (239iCys, S442C, EU), lambda light chain; purified, unconjugated; also called 5HE5/5Lg2
B2: 5Hg4-5Lg5 human Alya IgG1 (antibody, V domains shown)
VH: QVQLVQSGSELKKPGASVKVSCKASGYTFTDYWMHWVRQAPGQGLEWMGAIDTSDSYTSYNQKFKGRFVFSLDTSVSTAYLQICSLKAEDTAVYYCARDYGNFYYYAMDYWGQGTLVTVSS
VL: QSVVTQPPSVSGAPGQRVTISCRSSTGAVTTSNYANWYQQLPGTAPKLLIYGTNNRAPGVPDRFSGSKSGASASLAITGLQAEDEADYYCALWYSNHWVFGGGTKLTVL
notes: Humanised 5E3; human IgG1 Alya constant (239iCys, S442C, EU), lambda light chain; purified, unconjugated
B3: 5Hg4-5Lg1 human Alya IgG1 (antibody, V domains shown)
VH: B2 VH
VL: B1 VL with L78S
notes: as for B2
B4: 5Hg4-5Lg4 human Alya IgG1 (antibody, V domains shown)
VH: B2 VH
VL: B2 VL with V3A, V4L, A13S, R17S, L41P, L49M, A71N, S72T, A76T, T78S
notes: as for B2
B5: 5Hg4-5Lg2 human Alya IgG1 (antibody, V domains shown)
VH: B2 VH
VL: B1 VL
notes: as for B2
B6: 5Hg2-5Lg3 human Alya IgG1 (antibody, V domains shown)
VH: QVQLVQSGAEVKKPGASVKVSCKASGYTFTDYWMHWVRQAPGQRLEWMGAIDTSDSYTSYNQKFKGRVTITRDTSASTAYMELSSLRSEDTAVYYCARDYGNFYYYAMDYWGQGTLVTVSS
VL: QTVVTQEPSFSVSPGGTVTLTCRSSTGAVTTSNYANWYQQTPGQAPRTLIYGTNNRAPGVPDRFSGSILGNKAALTITGAQADDESDYYCALWYSNHWVFGGGTKLTVL
notes: as for B2
B7: 5Hg2-5Lg6 human Alya IgG1 (antibody, V domains shown)
VH: B6 VH
VL: SYELTQPSSVSVSPGQTARITCRSSTGAVTTSNYANWFQQKPGQAPVLVIYGTNNRAPGIPERFSGSSSGTTVTLTISGAQVEDEADYYCALWYSNHWVFGGGTKLTVL
notes: as for B2

Target: T1, human SEMA4A expressed on cells …
Test: cell-based or functional assay

Compared with B1, B2 is lower in “IC50 (pM), Fab-ZAP cell kill, NCI-H929” value: 167 pM for the first, 119 pM for the second.

Compared with B3, B4 is lower in “IC50 (pM), Fab-ZAP cell kill, NCI-H929” value: 122 pM for the first, 119 pM for the second.

First: B5
Second: B6
The “IC50 (pM), Fab-ZAP cell kill, NCI-H929” value of the first is higher: 151 pM for the first, 113 pM for the second.

For B7, the “IC50 (pM), Fab-ZAP cell kill, NCI-H929” value was 42 pM.

Compared with B1, B2 is lower in “Max % Cell Kill, Fab-ZAP, NCI-H929” value: 51% for the first, 50% for the second.

Compared with B3, B4 is lower in “Max % Cell Kill, Fab-ZAP, NCI-H929” value: 56% for the first, 33% for the second.

B5 and B6 are the same in “Max % Cell Kill, Fab-ZAP, NCI-H929” value: 58% for the first, 58% for the second.

With B7 the “Max % Cell Kill, Fab-ZAP, NCI-H929” value was 22%.

Target: T1, human SEMA4A expressed on cells …
Test: Mirrorball epitope competition on MM.1S cells; competitor: fixed 5E3 mouse IgG1
Description: The 5E3 epitope competition assay assessed the ability of the un-purified IgGs expressed in a human IgG1 backbone to compete for binding to the mouse 5E3 epitope on human SEMA4A endogenously expressed by MM.1S cells, a human multiple myeloma cell line. The assay utilised a secondary-Alexa Fluor 647 conjugate, 5E3 expressed in a mouse IgG1 (A) backbone (BioLegend®, San Diego, CA, 148402) and a Mirrorball fluorescence cytometer (SPT Labtech, UK). Binding of 5E3 mouse IgG1 to MM.1S cells was measured via an anti-mouse secondary labelled with Alexa Fluor 647 (Invitrogen, A21235) in the presence of a single concentration of each un-purified human IgG1. […] 10 μl undiluted un-purified IgG, contained in Expi293 expression medium (Gibco, UK, A1435101), were added to the assay plate (Greiner Bio-one, UK, 781906), followed by 10 ul of 1.2 nM 5E3 mouse IgG1 and 20 μl MM.1S cell suspension containing 1,500 cells that was spiked with 4 nM anti-mouse Alexa Fluor 647. The assay plate was incubated for 4 hours at room temperature, in the dark prior to reading on a Mirrorball fluorescence cytometer (SPT Labtech, UK) using a 640 nm laser for excitation and measuring emission in the FL-4 channel (650-690 nm). Data was analysed as Count x median mean intensity (x FLU). All dilutions were performed in Hanks' balanced salt solution (Sigma, UK; cat: H8264) containing 0.1% (w/V) BSA (Sigma, UK; cat: A9576). Maximum binding signal was determined by analysing the binding of 5E3 mouse IgG1 to MM.1S cells in the absence of competitor un-purified human IgG1. Background binding signal was determined by analysing the fluorescence generated in the absence of 5E3 mouse IgG1. Data were analysed and graphed using GraphPad Prism software (GraphPad Software, Inc, La Jolla, CA).
Hits from the primary screening were re-formatted into the human Alya IgG1 vector and re-expressed and purified as described in section 4.1. 5E3 epitope competition assay methods are described in section 3.2 and were used to test purified human Alya IgG1s. The purified human Alya IgG1s were diluted to a 4× stock and then serially diluted using 4-fold dilutions to generate a 10 point concentration response curve.

B1 and B2 are within 1.5-fold of each other in IC50: 14.9 nM for the first, 20.4 nM for the second.

Going from B3 to B4, the IC50 rises from 9.7 nM to 45.5 nM (4.7-fold). The first is the more potent here.

B5 and B6 are within 1.5-fold of each other in IC50: 8.4 nM for the first, 11.3 nM for the second.

B7 showed an IC50 of 71.8 nM.

Target: T2, mouse SEMA4A expressed on expi293 cells …
Test: Mirrorball direct binding, dilution series on expi293 cells transiently transfected with mouse SEMA4A, anti-human Alexa Fluor 647

B1: binds.
B2: binds.
B3: binds.
B4: binds.
B5: binds.
B6: binds.
B7: binds.
